Data taken from patent publication US20160200831A1 (Sanofi, published 2016).
Positions count from the first letter of the chain named. Where two headings read alike, the source gives them in different places.

B1: C45 (antibody, mouse IgG2b, V domains shown)
VH: QVQLQQSGVELVRPGTSVKVSCKASGYAFTNYLIEWIKQRPGQGLEWIGVIHPGSGVTNYNEKFKGKAILTADKSSSTAYMQLSSLTSDDSAVYFCARDYYGSSHGLMDYWGQGTSVTVSS
VL: DIKMTQSPSSMYASLGERVTITCKASQDINSYLSWFQQKPGKSPKTLIYRANRLVDGVPSRFSGSGSGQDYSLTISSLEYEDMGIYYCLQYDEFPRTFGGGTKLEIK
notes: mouse IgG2b; also called mC45; C45 (IgG2b)
B2: A44-hv1 (antibody, V domains shown)
VH: EMTLKESGPTLVKPTQTLSLTCSVTGDSMTNGYWNWIRKFPGKALEYMGYITYSGSTYYNPSLKGRISITRNTSKNQYYLTLSSVTTVDTATYYCARWHYGSPYYFDYWGQGTTLTVSS
VL: B1 VL with M11L, Y12S, L15V, E17D, F36L, L54S, E79Q, Y80P, M83L, R96P
notes: humanized A44, HEK293; also called LC1a x HC1a; variant 1
B3: A44-hv4 (antibody, V domains shown)
VH: B2 VH with N31Q
VL: B1 VL with M11L, Y12S, L15V, E17D, F36L, L54S, E79Q, Y80P, M83L, R96P
notes: humanized A44, HEK293; constant regions as for A44-hv1; also called LC1a x HC2b; variant 4
B4: A44-hv5 (antibody, V domains shown)
VH: B2 VH with N31Q
VL: DIKMTQSPSSLSASVGDRVTITCKASQDINSYLSWLQQKPGKSPKTLIYRAQRSVEGVPSRFSGSGSGQDYSLTISSLQPEDLGIYYCLQYDEFPPTFGGGTKLEIK
notes: humanized A44, HEK293; constant regions as for A44-hv1; also called LC2 x HC2b; variant 5
B5: A44-hv6 (antibody, V domains shown)
VH: B2 VH with E1Q, T25S, K39Q, S68T, N72D
VL: B4 VL with Q52N, E56D, G84A, I85T
notes: humanized A44, HEK293; constant regions as for A44-hv1; also called LC3 x HC3; variant 6
B6: A44-hv12 (antibody, V domains shown)
VH: B2 VH with E1Q, T25S, K39Q, S68T, N72D
VL: B4 VL with G84A, I85T
notes: humanized A44, HEK293; constant regions as for A44-hv1; also called LC4 x HC3; variant 12
B7: A44-hv9 (antibody, V domains shown)
VH: QMQLQESGPGLVKPSETLSLTCTVSGDSMTNGYWNWIRQPPGKGLEYMGYITYSGSTYYNPSLKSRITISRDTSKNQYSLKLSSVTAADTAVYYCARWHYGSPYYFDYWGQGTLVTVSS
VL: B4 VL with K3Q, S43A, Q52N, E56D, S72T, L73F, L83I, G84A, I85T, L104V
notes: humanized A44, HEK293; constant regions as for A44-hv1; also called LC5b x HC5b; variant 9
B8: A44-hv8 (antibody, V domains shown)
VH: B7 VH with M2V, D72N
VL: DIQMTQSPSSLSASVGDRVTITCKASQDINSYLSWLQQKPGKAPKLLIYRANRSVDGVPSRFSGSGSGTDYTFTISSLQPEDIATYYCLQYDEFPPTFGGGTKVEIK
B9: A44-hv14 (antibody, V domains shown)
VH: B7 VH
VL: B4 VL with G84A, I85T
notes: humanized A44, HEK293; constant regions as for A44-hv1; also called LC4 x HC5b; variant 14
B10: APG (antibody, V domains shown)
VH: QVKLQESGPELVKPGASVKISCKASGYSFTDYNMNWVKQSKGKSLEWIGIIHPNSGTTTYNQKFKGKATLTVDQSSSTAYLQLNSLTSEDSAVYYCARSKLRFFDYWGQGTTVTVSS
VL: B1 VL with M4L, N30Y, V55I, D82H, R96F, G100S
notes: murine anti-PAI-1 antibody of DE2000153251; also called mAPG; mouse APG
B11: APGv2 (antibody, V domains shown)
VH: QVQLVQSGSELKKPGASVKVSCKASGYSFTDYNMNWVRQAPGQGLEWIGIIHPNSGTTTYNQKFKGRAVLSVDQSVSTAYLQISSLKAEDTAVYYCARSKLRFFDYWGQGTLVTVSS
VL: B8 VL with M4L, N30Y, L36F, L46T, S54L, V55I, T69Q, P96F, G100Q, V104L
notes: humanized APG; captured by anti-human IgG (Fc); also called APG variant 2

Assays:
[1] = target: T1, glycosylated human PAI-1 (active form) (human, UniProt P05121 24-402, glycosylated); experiment: cell-based or functional assay
T1 sequence (P05121 24-402 limits assumed): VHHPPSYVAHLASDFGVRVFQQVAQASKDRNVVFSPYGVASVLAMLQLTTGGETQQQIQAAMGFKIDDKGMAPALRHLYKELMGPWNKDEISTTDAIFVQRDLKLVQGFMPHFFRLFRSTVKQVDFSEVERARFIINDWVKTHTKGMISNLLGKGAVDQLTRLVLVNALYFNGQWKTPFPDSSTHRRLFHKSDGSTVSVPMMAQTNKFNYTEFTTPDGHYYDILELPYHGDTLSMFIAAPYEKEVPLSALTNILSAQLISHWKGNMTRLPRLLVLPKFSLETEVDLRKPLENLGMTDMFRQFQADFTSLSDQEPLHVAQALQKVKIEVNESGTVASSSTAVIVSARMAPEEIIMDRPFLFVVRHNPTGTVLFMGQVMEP

[2] = target: T2, human PAI-1 (human, UniProt P05121 24-402); experiment: Biacore, hybridoma supernatant
T2 construct: also used for endogenous PAI-1 of human plasma, liver lysate and lung fibroblasts; also called hPAI-1; hPAI
T2 sequence (P05121 24-402 limits assumed): as above

[3] = target: T1, glycosylated human PAI-1 (active form); experiment: cell-based or functional assay; remark: listed apart in the source
[4] = target: T3, cyno PAI-1 captured on immobilized human vitronectin (cynomolgus monkey; human, UniProt P04004 20-478, limits assumed); experiment: Biacore, cPAI-1 on vitronectin chip, two state reaction model (kd1)
T3 construct: non-covalent complex formed on the chip; also called cPAI-1/Vn
T3 sequence (chain, as listed by the source limits assumed, chain 1 of 2): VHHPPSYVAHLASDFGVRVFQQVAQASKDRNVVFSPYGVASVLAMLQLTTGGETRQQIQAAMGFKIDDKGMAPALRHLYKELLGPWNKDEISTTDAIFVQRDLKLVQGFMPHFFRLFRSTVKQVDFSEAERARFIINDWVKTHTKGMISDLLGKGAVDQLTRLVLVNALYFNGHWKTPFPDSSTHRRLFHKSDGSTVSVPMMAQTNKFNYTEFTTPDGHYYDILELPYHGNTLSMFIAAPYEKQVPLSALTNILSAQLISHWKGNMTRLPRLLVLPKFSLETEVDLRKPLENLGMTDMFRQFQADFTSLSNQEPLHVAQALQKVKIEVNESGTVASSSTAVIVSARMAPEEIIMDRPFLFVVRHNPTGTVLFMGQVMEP
T3 sequence (P04004 20-478 limits assumed, chain 2 of 2): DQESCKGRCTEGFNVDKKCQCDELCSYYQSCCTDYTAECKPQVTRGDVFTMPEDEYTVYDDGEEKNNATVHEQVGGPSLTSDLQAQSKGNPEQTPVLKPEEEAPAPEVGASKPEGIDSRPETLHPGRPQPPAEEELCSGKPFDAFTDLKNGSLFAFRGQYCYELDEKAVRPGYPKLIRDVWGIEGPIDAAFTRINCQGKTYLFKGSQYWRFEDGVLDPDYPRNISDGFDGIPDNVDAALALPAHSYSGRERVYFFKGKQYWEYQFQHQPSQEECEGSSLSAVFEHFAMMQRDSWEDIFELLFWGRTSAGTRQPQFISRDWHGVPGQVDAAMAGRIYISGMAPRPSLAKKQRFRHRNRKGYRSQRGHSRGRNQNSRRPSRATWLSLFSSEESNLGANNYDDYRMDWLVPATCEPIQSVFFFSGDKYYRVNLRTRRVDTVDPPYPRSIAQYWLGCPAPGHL

[5] = target: T3, cyno PAI-1 captured on immobilized …; experiment: Biacore, cPAI-1 on vitronectin chip, two state reaction model
[6] = target: T3, cyno PAI-1 captured on immobilized …; experiment: Biacore, cPAI-1 on vitronectin chip, two state reaction model (ka1)
[7] = target: T1, glycosylated human PAI-1 (active form); experiment: cell-based or functional assay; remark: listed apart in the source
[8] = target: T4, human PAI-1 captured on immobilized human vitronectin (human, UniProt P04004 20-478); experiment: Biacore, hPAI-1 on vitronectin chip, 1:1 model
T4 construct: non-covalent complex formed on the chip or plate; also called PAI-1/Vn complex; Vn captured hPAI-1
T4 sequence (chain, as listed by the source limits assumed, chain 1 of 2): as the sequence (P05121 24-402 limits assumed) above
T4 sequence (P04004 20-478 limits assumed, chain 2 of 2): as the sequence (P04004 20-478 limits assumed, chain 2 of 2) above

[9] = target: T1, glycosylated human PAI-1 (active form); experiment: cell-based or functional assay; remark: listed apart in the source
[10] = target: T2, human PAI-1; experiment: cell-based or functional assay
[11] = target: T3, cyno PAI-1 captured on immobilized …; experiment: Biacore, cPAI-1 on vitronectin chip, 1:1 model
[12] = target: T5, cynomolgus PAI-1 (cynomolgus monkey (Macaca fascicularis), UniProt P05121 24-402 (human entry)); experiment: Biacore, mAb on anti-human IgG Fc chip / cyno PAI-1, 1:1 model
T5 construct: produced in-house in E. coli (non-glycosylated); active cyno PAI-1 in the assays; also called cyno PAI-1; cPAI-1

[13] = target: T5, cynomolgus PAI-1; experiment: cell-based or functional assay
[14] = target: T2, human PAI-1; experiment: cell-based or functional assay; remark: listed apart in the source
[15] = target: T2, human PAI-1; experiment: Biacore, mAb on anti-human IgG Fc chip, 1:1 model
[16] = target: T2, human PAI-1; experiment: cell-based or functional assay; remark: listed apart in the source
[17] = target: T1, glycosylated human PAI-1 (active form); experiment: SPR Biacore 2000, mAb captured by anti-Fc, single-cycle kinetics, 1:1 model
Method: First, the surface of a Sensor Chip CM5 (GE Healthcare, Uppsala, Sweden) was prepared using routine amine coupling for the capture of the mouse and human anti-Fc (Anti-human IgG (Fc) antibody & Anti-mouse IgG antibody kits, GE Healthcare). All monoclonal antibodies (mAbs) were diluted to 5 nM using HBS-EP running buffer. Each purified mAb was captured for three minutes on a different flow cell surface. Human PAI-1 was injected at various concentrations (2.5, 5, 10, 20 and 40 nM) with short dissociation times in between and a long dissociation time at the end (contact time: 120 seconds, short dissociation: 90 seconds; long dissociation: 1800 seconds, flow rate: 50 μl/min). The chip was regenerated by glycine-HCl, pH 1.7 buffer after each round of antibody-PAI-1 binding. Kinetics data analysis was performed using Biacore BIAevaluation software. The sensorgrams were double-referenced by subtracting the reference flow cell values and the blank buffer values. The sensorgrams were fitted by using the simulated kinetics 1:1 (Langmuir) model with local Rmax. (see FIG. 19).

[18] = target: T1, glycosylated human PAI-1 (active form); experiment: cell-based or functional assay; remark: listed apart in the source

Binder | Plasminogen Activation IC50 [7] [pM] | Plasminogen Activation Y50% [7] [%] | Kd [8] [pM] | koff [8] [s⁻¹] | kon [8] [M⁻¹ s⁻¹] | Plasminogen Activation Y50% [9] [%] | Chromogenic Assay IC50 [10] [pM] | Kd [11] [pM] | koff [11] [s⁻¹] | kon [11] [M⁻¹ s⁻¹] | other results
B1 |  |  |  |  |  |  |  |  |  |  | Chromogenic Assays [1]: 0.5 nM; Plasmin Generation [1]: 10.6 nM; koff [2]: ≤ 0.0001 s⁻¹; plasmin generation, hepatic stellate cells, IC50abs [3]: 6500 pM; plasmin generation, hepatic stellate cells, Imax [3]: 97%
B2 | 2080 | 58.5 | 52.6 | 0.000555 | 1.1e+07 | 45 | 490 |  |  |  | koff [4]: 0.00827 s⁻¹; Kd [5]: 2450 pM; kon [6]: 3.37e+06 M⁻¹ s⁻¹; Plasminogen Activation IC50 [9]: 3120 pM
B3 |  |  | 19.2 | 8.8e-05 | 4.59e+06 | 26 | 520 |  |  |  | koff [4]: 0.00017 s⁻¹; Kd [5]: 752 pM; kon [6]: 226000 M⁻¹ s⁻¹
B4 |  |  | 10.2 | 2.76e-05 | 2.72e+06 |  | 1110 | 32.6 | 0.000111 | 3.4e+06 | 
B5 |  |  | 13.3 | 5.68e-05 | 4.38e+06 | 56.9 | 820 | 5.01 | 2.51e-05 | 5.26e+06 | Plasminogen Activation IC50 [9]: 1780 pM
B6 | 1990 | 76.7 | 16.1 | 8.14e-05 | 5.15e+06 |  |  | 56.9 | 0.000235 | 4.26e+06 | Kd [12]: 24.4 pM; koff [12]: 5.45e-05 s⁻¹; kon [12]: 2.24e+06 M⁻¹ s⁻¹; active PAI-1 by uPA-PAI-1 complex ELISA, Cyno PAI-1, IC50 [13]: 26.6 pM; active PAI-1 by uPA-PAI-1 complex ELISA, Cyno PAI-1, Y50% [13]: 53.5%; active PAI-1 by uPA-PAI-1 complex ELISA, hPAI-1 Standard, IC50 [14]: 114 pM; active PAI-1 by uPA-PAI-1 complex ELISA, hPAI-1 Standard, Y50% [14]: 53.5%; active PAI-1 by uPA-PAI-1 complex ELISA, hPlasma TH1782, IC50 [14]: 3.35 pM; active PAI-1 by uPA-PAI-1 complex ELISA, hPlasma TH1782, Y50% [14]: 37.7%; Kd [15]: 41.4 pM; koff [15]: 6.7e-05 s⁻¹; kon [15]: 1.62e+06 M⁻¹ s⁻¹
B7 | 1510 | 50.9 | 17 | 0.000103 | 6.36e+06 | 46.5 | 860 | 21.5 | 0.000134 | 6.51e+06 | Plasminogen Activation IC50 [9]: 1900 pM
B8 |  |  |  |  |  | 11 | 760 |  |  |  | 
B9 | 1820 | 61.2 | 9.57 | 3.95e-05 | 4.06e+06 |  |  | 38.6 | 0.000213 | 5.86e+06 | Kd [12]: 11.5 pM; koff [12]: 2.69e-05 s⁻¹; kon [12]: 2.32e+06 M⁻¹ s⁻¹; active PAI-1 by uPA-PAI-1 complex ELISA, Cyno PAI-1, IC50 [13]: 28.7 pM; active PAI-1 by uPA-PAI-1 complex ELISA, Cyno PAI-1, Y50% [13]: 52.5%; active PAI-1 by uPA-PAI-1 complex ELISA, hPAI-1 Standard, IC50 [14]: 56.3 pM; active PAI-1 by uPA-PAI-1 complex ELISA, hPAI-1 Standard, Y50% [14]: 52.5%; active PAI-1 by uPA-PAI-1 complex ELISA, hPlasma TH1782, IC50 [14]: 58.6 pM; active PAI-1 by uPA-PAI-1 complex ELISA, hPlasma TH1782, Y50% [14]: 73.9%; Kd [15]: 27 pM; koff [15]: 3.42e-05 s⁻¹; kon [15]: 1.25e+06 M⁻¹ s⁻¹
B10 |  |  |  |  |  |  |  |  |  |  | PAI-1 activity in human plasma (uPA-PAI-1 complex ELISA), IC50abs [16]: 1810 pM; PAI-1 activity in human plasma (uPA-PAI-1 complex ELISA), Imax [16]: 89.7%; Kd [17]: 113 pM; koff [17]: 0.000432 s⁻¹; human plasma clot lysis, IC50 [18]: 2340 pM; human plasma clot lysis, Imax @ 100 nM [18]: 123%
B11 |  |  |  |  |  |  |  |  |  |  | PAI-1 activity in human plasma (uPA-PAI-1 complex ELISA), IC50abs [16]: 962 pM; PAI-1 activity in human plasma (uPA-PAI-1 complex ELISA), Imax [16]: 94.5%; Kd [17]: 40.8 pM; koff [17]: 0.000269 s⁻¹; human plasma clot lysis, IC50 [18]: 2080 pM; human plasma clot lysis, Imax @ 100 nM [18]: 114%
